Experiment: yeast display, Sf9 membrane polyspecificity reagent, FACS + sequencing; frameworks hold sequencing errors
How it was run: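 After 36–48 hours of galactose induction, yeast (Saccharomyces cerevisiae BJ5465) displaying a synthetic nanobody library were stained at 4 °C for 1 hour with 10% biotinylated, detergent-solubilized Sf9 membrane reagent. Streptavidin microbeads enriched the stained cells before FACS sorting into low and high (top ~1%) gates on anti-HA and streptavidin fluorescence. Each clone's polyreactivity label reflects its gate of origin.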

Sequence	polyreactivity (PSR sort gate)
QDQLVDSGGGFVQAGGSLSLSCAASRRTFLYYAMGWYRQAPGKERELVAAIRRGSSTYYADSVKGRFTISRDNAKNNGFLQLISLIAADTAVYYCAAEFVNGPPYGAYDYWGQGTQVTVSS	high polyreactivity
QVQLVESGGGLVQAGGSLRLSCAASGFIFKPNAMGWYRQAPGKERELVAAITWGGDNTYYADSVKGRFTISRDNAKNTVYLQMNSLKPDDTAVYYCAAEWKFHSDASYIYDYWGQGTQVTVSS	high polyreactivity
QVQLVESGGGLVQAGGSLRLSCAASGRIIYGYAMGWYRQEPGKERELVAAITATYYGDSVKGRFTISRDNAKNTVYLQMNSLKPEDTAVYYCNAYLCPKQPLSPPDPTFEGGYWGQCTQVTVSS	low polyreactivity
QVQLVESGGGLVQAGGSLRLSCAASGSTFWFYAMGWYRQAPGKERELVAAITSSGSSTYYADSVKGRFTISRDNAKNTVYLQMNCLKPEDTAVYYCAADDSNDSPSLYYVAYNYWGQGTQVTVSS	low polyreactivity
QDQLVESGVGLVQAGGSLRLSCAASGYIFLLYDMGWYRQAPGKEREMVATITSGGGTYYADSVKGRVTISRDNAKNTVYLQMNSLIPEDTAVYYCNADLYRWTGRSYWDKHGSWGQGTQVTVSS	low polyreactivity
QLQLVESGGRLVQAGGSLRLSCAASGRIFYANAMGWYRQAPGKERELVAAISSGGSTYYADSVKGRFTISRDNAKNTVLLQMNSLKPEDTAVYYCAVYTHKKVRPEYDYWGQGTQVTVSS	low polyreactivity
QVQLVESGGGLVQAGRSLRLSCSASGFSFSFYSMGWYRQAPGKERELVAAISQSGGSTYYADSVKGRFIISLDNAKHTVYLQKNSLKPEDTAVYYCNRGLRRHQSDDYWGQGTQVTVSS	high polyreactivity
QLQLVESGGGLVQAGGSLRLSCAASGRTSRRYAMGWYRQAPGKERELVAAIRGSGGSTYYADSVKGRFTISRDNAKNTVYLQMNSLKPEDTAVYYCAADWSFWSLAYPSAKFYAEFDYWGQGTQVTVSS	high polyreactivity
QVQHVESGGGLVQAGGSLRLSSAASGGTFNVYAMGWYRQAPGKESELVAAIRWSGGSTYYADSVKGRFTISRDNAKNTVYLQMNSLKPEDTAVYFCAARFYGRSQTYGSWGLGTQVTVSS	high polyreactivity
QVQLVESGGGLVQAGVSLRLSCAASGRIFPGYAMGSDRQAPAKERELVAGITWRTARTYYADSVKGRFTISRDNAKNTVYLQMNSLKPEDTAVYYCAAVSDYEGNYWGQGTQVTVSS	high polyreactivity
QVQLVESGGGLVQAGGSLRLSCAASGRIVADYAMGWYRQAPGKERELVAAIRGSGGDTYYADSVKGRFTISRDNAKNTDYLQMNSLKPEDTAVYYCNAVDTYDLDNDYWGQGTQVTVSS	low polyreactivity
QVHLVESGGGLVQAGGSLRLSCAASGFTFPIYAIGWYRQAPGKERELVAAITTRGGSTYYADSVKGRFTISRDNAKNTVYLQMNSLKPEDTAVYYCNNRGRRTDYDYWGQGTQVTVSS	high polyreactivity
QVQLVESGGGLVQAGGSLRLSCAASGGIFRYYAMGWYRQAPGKERELVAAISRSGDSTYYADSVKGRFTISRDNAKNTVYLQMNSLKPEDTAVYYCAATRLYWKIFYGDGDYWGQGTQVTVSS	high polyreactivity
QVQLVESGGGLVQAGGSLRLSCAASGTFRRYTMGWYRQAPGKERELVAAITSSGGTYYADSVKGRFTISRDNAKNTVYLQMNSLKPEDTAVYYCAARDYWSRYFRPGIVGWHDYWGQGTQVTVSS	high polyreactivity
QVQLVESGGGLVQAGGSLRLSCAASGLIFITYAMGWYIQAPGKERELVATITLRGGSTYYADSVKGRFTISRDNAKNTVYLQMNSLKPEDTAVYYCAADVGYWGRSRGYPSDDYDYWGQGTQVTVSS	low polyreactivity
QFQLVESGGGLVQAGGSLRLSCAASGSTFRGYVMGWYRQAPGKERELVAAITFSSGSTYYADSVKGRFTISRDNAKNTVYLQMNSLKPEDTAVYYCAAVGPYYRDYYYWGQGTQVTVSS	high polyreactivity
QVQLVESGGGLVQAGGSLRLSCAASGSIFRYYAMGWYRQAPGKERELVATISSGGRTYYADSVKGRFTISRDNAKNTVYLQMNSQKPEDTAVYYCAARYGTTRYGFDYWGQGTQVTVSS	high polyreactivity
QVQLVESGGGLVQAGGSLRLSCAASGSIFPLYAMGWYRQAPGKERELVADITVSGGSTYYADSVKGRFTISRDNAKNTVYLQMNSLKPEDTAVYYCNADDRSPFPDYWWYPYDYDYWGQGTQVTVSS	low polyreactivity
HVQLVESGGGLVQAGGSLRLSCAASGRIFNDYSMGWYRQAPGKERELVAAIRRRGDRTYYADSVKGRFTISRDNAKNTVYLQMNSLKPEDTAVYYCAKSQSAKGGYDYWGQGTQVTVSS	high polyreactivity
QVQLVESGGGLVQEGGSLRLRCAASGSIFPYNAMGWYRQAPGKERELVAAISSTGGRTYYADSVKGRFTISRDNAKNTVYLQMNSLKPEDTAVYYCAARLYDKPGFYSWGEGTQVTVSS	high polyreactivity
QVQLVESGGGLVQAGGSLRLSCAASGFTFVSYAMGWYRQAPGKERELVAAISKRGGSTSYADSVKGRFTISRDNAKNTVYLQMNSLKPEDTAGYYCAARYGSSYSWSNYWGQGTQVTVSS	high polyreactivity
QVQLVESGGGLVQAGGSLRLSCAASGIIFYVNDMGWYRQAPGKERELVADISGGTSTNYADSVKGRFTISRDNAKNTVYLQMNSLKPEDTAVYYCATAFIVPFPGSDYWGQGTQVTVSS	low polyreactivity

Sequence	polyreactivity (PSR sort gate)
QVQLVESGGGLVQAGGSLRLSCAASGLTFAENAMGWYRQAPGKERELVAAISASGGSTYYADSVKGRFTISRDNAKNTVFLQMNSLKPEDTAVYYCATRVAFLWPRRDYDYWGQGTQVTVSS	low polyreactivity
QVQLVESGGGLVQAGGSLRLSCAASGNIFLYYAMGWYRKAPGKERELVADIDSSGASTYYADSVKGRFTISRDNAKNTVYLQMNSLKPEDTAVYYCPAEFHWWYAGYDYGYWGLGTQVTVSS	low polyreactivity
QVQLVESGGGLVQAGGSLRLSCAASGSILVSYAMGWYRPAPGKERELVAAITSGGRTKYADSVKGRFTISRDNAKNTVYLQMNSLKPEDTAVYYCAADDPLSYQFDYWGQGTQVTVSS	high polyreactivity
QVQLVESGGGLVQAGGSLRLSCAASGRIFRGYAMGWYRQAPGKERELVAAIDTDTGITYYADSVKGRFTISRDNAKNTVYLQMNSLKPEDTAVYYCAAETYYAVSTGYDFDYWGQGTQVTVSS	high polyreactivity
QVQLVESGGGLVQAGGSLRLSCAASGYIFASYAMGWYRPAPGKERELVAAISIGGNTNYADSVKGRFTISRDNAKNTVYLQMNSLKPEDTAVYYCAAKTPRYRYGYWRQGTQVTVSS	low polyreactivity
QVKLVESGGGLVQAGGSLRLSCAASGSISLYYAMGWYRQAPGKERELVAAISDSGGDTYYADSVKGRFTISRDNAKITVYLQMNSLKPADTAVYYCATDTAYWLWVYALLEYWGQGTQVTVSS	low polyreactivity
QVQLVESGGGLVQAGGSLRLSCAASGITFIIYVMGWYRQAPGKERELVAAISSTGSTYYADSVKGRFTISRDNAKNTVYLQMNSLKPEDTAVYYCAARGRRSSNGFYYWGQGTQVTVSS	high polyreactivity
QVQLVESGGGLVQAGGSLRLSCAASGFIFPDDAMGWYSQAPGKERELVASINRSGGSTNYADSVKGRFTISRDHAKNTDYLQMNSLKPEDTAVYYCAPDFSFLGNASARLDYDYWGQGTQVTGSS	low polyreactivity
QVQLVESGGGLVQEGGSLRLSCAASGFTFRWYAMGWYRQPPRKERELFAVISSGGRTYYADSVKGRFTISRDNAKNTVYLEKNSLKPEDTAVYSCAAEFTDHYPDYWGYPLYDYWGQGTQVTVSS	high polyreactivity
QVQLVESGGGLVQAGGSLRLSCAASGFIFWLYAMGWYIQAPGKERELVASINWSGGDTYYADSVKGRFTISRDNAKNTFYLQMNSLKPEDTAVYYCTAKVLDSKSSFDYWGKGTQVTVSS	low polyreactivity
QVQLVESGGGLVQAGGSLRLSCAASGFTFHRNAMGWYRQAPGKERELVAAISTRGGSTAYADSVKGRFTISRDNAKNTVYLQMNSLKPEDTAVYYCAAATSPGIYDYWGQGTQVTVSS	high polyreactivity
QVQLVESGGGLVQAAPSLRLSCAASGSTINNNAMGWYRQAPRKERELVAAIDSGFSTNYADSVKGRFTISRDNAKNTVYLQMNSLKPEDTAVYYCYADPDYFDYWGQGTQVTVSS	low polyreactivity
QVQLVESGGGLVQAGGSLRLSCAASGSNFLYSAMGWYRQAPGKERELVAVISWSGVSTYYADSVKGRFTISRDNAKNTVYLQMNSLKPEDTAVYYCNTGNHYIRTYGYWGQGTQVTVSS	low polyreactivity
QVQLVESGGGLVQAGGSLRLSCAASGRTFSQYAMGWYRQAPGKERELVAAISWSGDSTYYADSVKGRFTISRDNAKNTVYLQMNSLKPEDTAVYDCAADRRVETPRYDYWGQGTQVTVSS	low polyreactivity
QVQLVESGGGLVQAGGRIRLSCAASGIIFYPYAMGWYRQAPGKERELVAGISSSGGSTYYADSVKGRFTISRDNAKNTVYLQMNSLKPEDTAVYYCAAVRISRTPRGLYEYWGQGTQVTVSS	high polyreactivity
QVHLVDSGGGLVQAGGSLRLSCAASGFIFSKYAMGWYRQAPGKERELVAAISWNGGSTYYADSVKGRFTISRDNAKNTVYLQMNSLKPEDTAVYYCNARGRYRKSERRAFDYWGQGTQVTVSS	high polyreactivity
QVQLVDSGGGLVQAGGSLRLSCAASGITFTRYAMGWYRQAPGKERELVAAISSGGRTNYADSVKGRFTISRDNAKNTVYLQMNSLKREDTAVYYCNALYRARWGLGTQVTVSS	high polyreactivity
QVQLVESGAGLVHAGGSLRLSCAASGRIFNYYAMGWYRQAPGKESELVAGINWSGTRTYYADSVKGRFTISRDNAKITVYLQMNSLKPEDTAVYYCNAGRTWRAFTGDEYWVQGTQVTVSS	high polyreactivity
QVQLVESGGGLVQAGGSLRLSCAASGRTFLYNAMGWYREAPGTERELVAAISTNGSSTYYADSVKGRFTISRDNAKNTVYLQMNSLKPEDTAVYYCAAQPPLDYEFPYRYGYWGQGTQVTVSS	low polyreactivity
QVQLVESGGGLVQAGGSLRLSCAASGFNIVRYAMGWYRHAPRKERELVATITSGTSTNYADSVKGRITISRDNAKNTVYFQMNSLKPDDTAVYYCAADHYYTGTTYNFWGQGTQVNVSS	low polyreactivity
QVQLVESGGGLVQAGGSLRLSCAASGITFDYYAMGWYRQAPRKERELVAAITGGGSTNYADSVKGRFTISRDNAKNTVYLQMNSLIPEDTAVYFCNALTRYRYQYGYLGGTGYNYWGHGTQVTVSS	low polyreactivity

Reference: the nanobody polyreactivity screen of Harvey et al. (2022)
